Laboratory results as given in PMC12098869, “An mRNA-display derived cyclic peptide scaffold reveals the substrate binding interactions of an N-terminal cysteine oxidase” (Nature Communications, 2025).
Values joined by “and” are separate entries in the source; they are usually repeats but may differ in a detail not shown here. Equal values may be shown once. Read-outs that look alike come from different tables or passages of the source. Where a SMILES comes first, the peptide text is derived from it. Bridges are numbered along the chain shown (N, C = ends). Where no end group is shown, it is not given here. Side-chain parts run from the residue outwards. [ ]: non-standard residue; d: D form. Dap = NC[C@H](N)C(=O)O

Assays:
[1] = target: 2-aminoethanethiol dioxygenase (ADO), wild type, biotinylated (pQE80L-Navi-ADO) (human); experiment: SPR; multi-cycle, equilibrium steady state affinity 1:1 binding model; biotinylated ADO or variant immobilised on a Biotin CAP chip (~2500-3000 RU), peptide injected; 4 °C; 20 mM HEPES pH 7.5, 500 mM NaCl, 10 mM DTT, 0.1% (v/v) tween-20; 50 μL/minute
[2] = target: ADO-D206N, biotinylated (pQE80L-Navi-ADO) (human) (UniProt Q96SZ5); experiment: SPR; single-cycle kinetics (SCK), 1:1 binding model; biotinylated ADO or variant immobilised on a Biotin CAP chip, peptide injected at 25.6, 64, 160, 400, 1000 nM; 4 °C; 20 mM HEPES pH 7.5, 500 mM NaCl, 10 mM DTT, 0.1% (v/v) tween-20; 50 μL/minute
human ADO [3] = target: T1, human ADO (Homo sapiens, UniProt Q96SZ5); experiment: SPR single-cycle kinetic (SCK) binding of cyclic peptides to ADO; conditions: 1:1 binding model, 4 °C, geometric mean of a minimum of three independent measurements (n = 3) with standard error
T1 construct: Full-length human ADO (Uniprot ID: Q96SZ5) was cloned; made in house; host or cells: E. coli Rosetta2(DE3)
T1 sequence (Q96SZ5 1-270): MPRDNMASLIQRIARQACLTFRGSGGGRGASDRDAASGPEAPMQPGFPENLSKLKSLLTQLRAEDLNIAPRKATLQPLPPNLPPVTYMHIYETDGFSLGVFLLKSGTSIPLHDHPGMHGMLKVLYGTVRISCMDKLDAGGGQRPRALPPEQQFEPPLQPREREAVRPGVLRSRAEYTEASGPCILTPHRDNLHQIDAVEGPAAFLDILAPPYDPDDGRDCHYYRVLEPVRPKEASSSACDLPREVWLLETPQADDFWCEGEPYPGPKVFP
From the text: After six cycles, clear enrichment of several CPs was observed by next-generation sequencing. The most enriched CPs (CP1-8, numbered according to their percentage enrichment in the final selection round) were selected for subsequent analysis (Table 1). CP1, 5, 6 and 7 are related in sequence, while CP2, 3, 4, and 8 are unique compositions (Fig. 1b). These CPs were subsequently produced by solid-phase peptide synthesis (SPPS) and analysed by surface plasmon resonance (SPR) using single cycle kinetic (SCK) analysis to confirm and quantify binding to ADO. ADO could interact with each CP to varying degrees (Supplementary Fig. 4, Table 1, Fig. 1dleft).
SPR measurements were made using a Biacore T200 (Cytiva) instrument and data were analysed using the Biacore Insight Evaluation Software. Biotinylated-ADO was immobilised on a Biotin CAP chip (Cytiva) with a target density of ∼2500–3000 RU and peptide/protein substrates were injected over the chip. Experiments were conducted at 4 °C using both multi-cycle (fit using the equilibrium steady state affinity 1:1 binding model) and single-cycle kinetics mode (fit using a 1:1 binding model). A buffer comprising 20 mM HEPES pH 7.5, 500 mM NaCl, 10 mM DTT, and 0.1% (v/v) tween-20 was used as the running buffer at a flow rate of 50 μL/minute.

human ADO [4] = target: T1, human ADO; experiment: ADO activity inhibition assay (RGS5_2-15 oxidation monitored by LCMS): single-dose and IC50; type: biochemical
Method: We next tested the ability of the CPs to inhibit ADO activity. ADO activity was measured with and without 10 μM of each CP using an established stopped assay in which the oxidation of a representative substrate (RGS5_2-15; a synthetic peptide corresponding to the methionine excised N-terminus of RGS5, residues 2 to 15) was monitored by liquid chromatography coupled mass spectrometry (LCMS)[7],[35],[36].
The enzymatic activity of ADO was examined by incubating between 0–1000 μM peptide substrates with 0.1 μM ADO in a bench-top thermomixer at 37 °C for 45 seconds. Otherwise stated, the reaction buffer contained 50 mM Tris pH 7.5, 50 mM NaCl, and 5 mM TCEP. The reactions were quenched by mixing the sample 1:10 with 1% formic acid (v/v).
Peptide samples were injected onto a Chromolith® RP-18 Endcapped HPLC Columns (100–2 mm; Merck), heated to 40 °C and eluted at 0.3 ml/min using a gradient of 95% deionised water supplemented with 0.1% (v/v) formic acid to 95% acetonitrile. Oxidation was monitored by an ultra-high-performance liquid chromatography (UHPLC) mass spectrometry (MS) using ExionLC AD (Sciex) and SelexION (Sciex) mass spectrometer operated in a positive electrospray time-of-flight ( + ESI-TOF) mode. Instrument parameters, data acquisition and data processing were controlled by Analyst software (Sciex). The peptide data processing was performed using Skyline software. Turnover was quantified by comparing the areas underneath the product and substrate ions extracted from the total ion current chromatogram. All figures and parameters were generated using GraphPad Prism 9.

[5] = target: T2, 2-aminoethanethiol dioxygenase (ADO), full-length human, N-terminally His-tagged and biotinylated … (human, UniProt Q96SZ5 1-270, biotin (biotinylated during expression, 0.2 mM biotin added)); experiment: SPR; single cycle kinetic (SCK) analysis, 1:1 binding model; biotinylated ADO immobilised on a Biotin CAP chip (~2500-3000 RU), cyclic peptides injected; 4 °C; 20 mM HEPES pH 7.5, 500 mM NaCl, 10 mM DTT, 0.1% tween-20; 50 μL/minute; conditions: both partners purified
T2 construct: 2-aminoethanethiol dioxygenase (ADO), human, UniProt Q96SZ5, full length; Construct used for RaPID screening and all SPR experiments; No tag cleavage step is described in its purification; also called wild type ADO; biotinylated ADO; source: E. coli Rosetta2(DE3), purified (Ni-NTA, SEC); not shown: biotinylation tag (from the vector pQE80L-Navi), N-terminal, kept
T2 sequence (looked up): T1 sequence (Q96SZ5 1-270)

[6] = target: ADO with a change in Y212 (ADO-Y212) (human) (UniProt Q96SZ5); experiment: SPR; biotinylated ADO (wild type or mutant) immobilised on a Biotin CAP chip, substrate peptides injected; 4 °C; 20 mM HEPES pH 7.5, 500 mM NaCl, 10 mM DTT, 0.1% tween-20; multi-cycle or single-cycle mode not given
[7] = target: ADO with a change in F101 (ADO-F101) (human) (UniProt Q96SZ5); experiment: as above
[8] = target: T3, 2-aminoethanethiol dioxygenase (ADO), full-length human, N-terminally His-tagged and biotinylated … (human, UniProt Q96SZ5 1-270, biotin (biotinylated during expression, 0.2 mM biotin added)); experiment: SPR; single-cycle kinetics (1:1 binding model); biotinylated ADO immobilised on a Biotin CAP chip (~2500-3000 RU), cyclic peptide injected; Biacore T200, 4 °C; 20 mM HEPES pH 7.5, 500 mM NaCl, 10 mM DTT, 0.1% tween-20; 50 µL/minute; each cell is one of three independent measurements; conditions: both partners purified
T3 construct: 2-aminoethanethiol dioxygenase (ADO), human, UniProt Q96SZ5, full length; Immobilised through its biotin on a Biotin CAP chip for SPR; also called wild type ADO; Biotinylated-ADO; source: E. coli Rosetta2(DE3), purified (Ni-NTA, SEC); not shown: biotinylation tag (from the vector pQE80L-Navi), N-terminal, kept
T3 sequence (looked up): T1 sequence (Q96SZ5 1-270)
Outline: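 Full-length human ADO carrying a His tag and a biotin label was produced in E. coli and purified first by nickel affinity, then by gel filtration. The protein was loaded onto a Biotin CAP chip in a Biacore T200 to roughly 2500–3000 RU, after which cyclic peptides were passed across the surface at 50 µL/minute and 4 °C in HEPES pH 7.5 buffer containing 500 mM NaCl, DTT and tween-20. Each Kd was obtained by fitting single-cycle kinetic sensorgrams to a 1:1 binding model, based on three independent measurements.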

[9] = target: T3, 2-aminoethanethiol dioxygenase (ADO), …; experiment: SPR; single-cycle kinetics (1:1 binding model); biotinylated ADO immobilised on a Biotin CAP chip (~2500-3000 RU), cyclic peptide injected; Biacore T200, 4 °C; 20 mM HEPES pH 7.5, 500 mM NaCl, 10 mM DTT, 0.1% tween-20; 50 µL/minute; each cell is one of three independent measurements; conditions: both partners purified; remark: listed apart in the source
[10] = RGS5_2-15 substrate, LCMS, 37 °C, average of three independent experiments (n = 3), standard error, read-out: IC50

For “IL32_(2-15), synthetic peptide corresponding to the methionine excised N-terminus of IL32, residues 2-15 (from UniProt P24001 2-15)”, the Kd [1] was 460 nM and the Kd [2] was 70 nM.

In the case of `CC[C@H](C)[C@@H]1NC(=O)[C@H]([C@@H](C)O)NC(=O)CNC(=O)[C@H](CC(C)C)NC(=O)[C@H](C(C)C)NC(=O)[C@H](Cc2ccc(O)cc2)NC(=O)[C@H](Cc2ccc(O)cc2)NC(=O)[C@H](Cc2ccc(O)cc2)NC(=O)CSC[C@@H](C(N)=O)NC(=O)[C@H](Cc2ccccc2)NC(=O)[C@H](CCCNC(=N)N)NC(=O)[C@H](Cc2ccc(O)cc2)NC(=O)[C@H](CCCNC(=N)N)NC(=O)[C@H](CCCCN)NC(=O)[C@H](C(C)C)NC(=O)[C@H](CC(C)C)NC1=O` [CP4] ({CH2CO}-YYYVLGTILVKRYRFC-NH2; thioether N-16), the Kd (human ADO [3]) is reported as 1300 ± 140 nM and the IC50 (human ADO [4]; [10]) is reported as over 50000 nM.

In the case of `CC(C)C[C@@H]1NC(=O)[C@H](Cc2ccc(O)cc2)NC(=O)[C@H](CC(C)C)NC(=O)[C@H]([C@@H](C)O)NC(=O)[C@H](C(C)C)NC(=O)[C@H](CC(C)C)NC(=O)[C@H](CC(C)C)NC(=O)[C@H](Cc2ccc(O)cc2)NC(=O)CSC[C@@H](C(N)=O)NC(=O)[C@H](CO)NC(=O)[C@H](CCCNC(=N)N)NC(=O)[C@H](Cc2c[nH]cn2)NC(=O)[C@H]([C@@H](C)O)NC(=O)CNC1=O` [CP7] ({CH2CO}-YLLVTLYLGTHRSC-NH2; thioether N-14), the KD (human ADO [3]) is reported as “non-specific binding” and the IC50 (human ADO [4]; [10]) is reported as 9920 ± 290 nM.

`CC[C@H](C)[C@@H]1NC(=O)[C@H](Cc2ccc(O)cc2)NC(=O)CSC[C@@H](C(N)=O)NC(=O)[C@H](CCC(N)=O)NC(=O)[C@H](CCCNC(=N)N)NC(=O)[C@H](Cc2c[nH]cn2)NC(=O)[C@H](CO)NC(=O)CNC(=O)[C@H](CC(C)C)NC(=O)[C@H](Cc2c[nH]c3ccccc23)NC(=O)[C@H](CO)NC(=O)[C@H]([C@@H](C)O)NC(=O)[C@H](CCCCN)NC(=O)[C@H](C(C)C)NC1=O` [CP6-F6S] ({CH2CO}-YIVKTSWLGSHRQC-NH2; thioether N-14) was tested, and the IC50 (human ADO [4]; as given in the legend of Fig. 2c (concentration of CP added), read-out: half-maximal inhibitory concentration (IC50)) was 200 nM.

In the case of “RGS5_(2-15), synthetic peptide corresponding to the methionine excised N-terminus of RGS5, residues 2 to 15 (from UniProt O15539 2-15)”, the Kd [1] is reported as 640 nM and the Kd [2] is reported as 150 nM.

B1: CP6-L8d-Gly-Ser (peptide)
chain: {CH2CO}-YIVKTFW[Dap]([Gly-Ser])GSHRQC
modifications: thioether N-14
For B1, the Kd [5] was 150 nM.

B2: IL32_(2-15), synthetic peptide corresponding to the methionine excised N-terminus of IL32, residues 2-15 (peptide)
peptide: CFPKVLSDDMKKLK
B2 was tested, and the fold increase in KD relative to wild type ADO [6] was under 113 fold and the fold increase in KD relative to wild type ADO [7] was under 80 fold.

B3: CP6-L8d-Lys-Ser (peptide)
chain: {CH2CO}-YIVKTFW[Dap]([Lys-Ser])GSHRQC
modifications: thioether N-14
Work on B3 yielded a Kd [5] of 490 nM.

B4: CP6-L8d-Phe-Ser (peptide)
chain: {CH2CO}-YIVKTFW[Dap]([Phe-Ser])GSHRQC
modifications: thioether N-14
B4 showed a Kd [5] of 79 nM.

B5: RGS5_(2-15), synthetic peptide corresponding to the methionine excised N-terminus of RGS5, residues 2 to 15 (peptide)
peptide: CKGLAALPHSCLER
Molecule B5 has a fold increase in KD relative to wild type ADO [6] of under 113 fold and a fold increase in KD relative to wild type ADO [7] of under 80 fold.

B6: Cyclic peptide CP6 (peptide)
peptide: {CH2CO}-YIVKTFWLGSHRQC-NH2
modifications: thioether N-14
SMILES: CC[C@H](C)[C@@H]1NC(=O)[C@H](Cc2ccc(O)cc2)NC(=O)CSC[C@@H](C(N)=O)NC(=O)[C@H](CCC(N)=O)NC(=O)[C@H](CCCNC(=N)N)NC(=O)[C@H](Cc2c[nH]cn2)NC(=O)[C@H](CO)NC(=O)CNC(=O)[C@H](CC(C)C)NC(=O)[C@H](Cc2c[nH]c3ccccc23)NC(=O)[C@H](Cc2ccccc2)NC(=O)[C@H]([C@@H](C)O)NC(=O)[C@H](CCCCN)NC(=O)[C@H](C(C)C)NC1=O
notes: selected by RaPID mRNA display against ADO; source: synthetic peptide (SPPS)
In the case of B6, the Kd [8] is reported as 50.9 nM and 50.4 nM and 50.6 nM and the Kd [9] is reported as 28.9 nM and 28.6 nM and 31.2 nM.

B7: CP6-K4A (peptide)
peptide: {CH2CO}-YIVATFWLGSHRQC
modifications: thioether N-14
notes: the substitution K4A is to be applied to them; Single amino acid substituent of CP6; source: synthetic peptide
With B7 the Kd [9] was 429 nM and 397 nM and 428 nM.
